Source: US20020090696

Experiments:
[1] = molecular target: GST-2.5 fusion protein [GST: P08515]

B1: Rat SAPKβ (protein)
chain: MSLHFLYYCSEPTLDVKIAFCQGFDKHVDVSSVVKHYNMSKSKVDNQFYSVEVGDSTFTVLKRYQNLKPIGSGAQGIVCAAYDAVLDRNVAIKKLSRPFQNQTHAKRAYRELVLMKCVNHKNIISLLNVFTPQKTLEEFQDVYLVMELMDANLCQVIQMELDHERMSYLLYQMLCGIKHLHSAGIIHRDLKPSNIVVKSDCTLKILDFGLARTAGTSFMMTPYVVTRYYRAPEVILGMGYKENVDIWSVGCIMGEMVRHKILFPGRDYIDQWNKVIEQLGTPCPEFMKKLQPTVRNYVENRPKYAGLTFPKLFPDSLFPADSEHNKLKASQARDLLSKMLVIDPAKRISVDDALQHPYINVWYDPAEVEAPPPQIYDKQLDEREHTIEEWKELIYKEVMNSEEKTKNGVVKGQPSPSGAAVNSSESLPPSSSVNDISSMSTDQTLASDTDSSLEASAGPLGCCR
- in vitro kinase assay, phosphorylation of protein 2.5 [1]: Rat SAPKβ ... phosphorylates protein 2.5
- in vitro phosphorylation assay [1]: hJIP1/IB1 is a substrate for JNK3 in the same in vitro phosphorylation assay
- in vitro phosphorylation of a GST c-Jun fusion protein [1]: this protein greatly reduces phosphorylation of a GST c-Jun fusion protein in a concentration dependent manner
- phosphorylation of GST-c-Jun in a kinase reaction with c-Jun and rSAPKβ [1]: protein 2.5 shows a dose-dependent inhibition of phosphorylation of GST-c-Jun
- phosphorylation of GST-c-Jun in a kinase reaction with c-Jun and rSAPKβ (GST [GST: P08515]): GST alone shows no effect.
